The source of these data is patent publication US20030166587.

The data set has as its system IKK-phosphorylated IκBα in the IκBα/NF-κB complex.

Chain of IKK-phosphorylated IκBα in the IκBα/NF-κB complex (chain, as listed by the source): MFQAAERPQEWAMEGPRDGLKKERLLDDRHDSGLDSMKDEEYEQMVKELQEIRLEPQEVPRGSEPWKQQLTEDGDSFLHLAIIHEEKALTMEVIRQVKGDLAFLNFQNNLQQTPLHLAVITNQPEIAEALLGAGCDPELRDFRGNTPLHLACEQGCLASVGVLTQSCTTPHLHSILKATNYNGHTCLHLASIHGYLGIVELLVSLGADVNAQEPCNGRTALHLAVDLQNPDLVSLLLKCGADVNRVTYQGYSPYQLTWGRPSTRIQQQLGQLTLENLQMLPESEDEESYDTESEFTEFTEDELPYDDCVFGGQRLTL

In the case of Drosophila Slimb protein, FLAG-tagged, the in vitro ubiquitination of pIκBα in the presence of E1 and E2 (UBC5C), efficiency against human and mouse β-TrCP (fold less efficient) was more than 10.
